Results on 1 molecule are retold here after publication PMC7611325 (Molecular cell, 2021).

The assay has as its target PAF1c (Polymerase II associated factor 1 complex; CTR9, Leo1, Paf1, CDC73, WDR61) (UniProt Q6PD62;Q8WVC0;Q8N7H5;Q6P1J9;Q9GZS3). The experiment in a line: pull-down.

B1: GST-MYC^1-163 (glutathione-S-transferase fusion protein that encompasses amino acids 1 to 163 of human MYC) (domain or fragment)
chain: MPLNVSFTNRNYDLDYDSVQPYFYCDEEENFYQQQQQSELQPPAPSEDIWKKFELLPTPPLSPSRRSGLCSPSYVAVTPFSLRGDNDGGGGSFSTADQLEMVTELLGGDMVNQSFICDPDDETFIKNIIIQDCMWSGFSAAAKLVSEKLASYQAARKDSGSPN
In the case of B1, the binding result is reported as “binds”.
